B1: LINE1-mini (parent)
chain: GGCAGAGCUCAACACAGCGUGGCAAAGUGGCUGUGGCUAGACUGCC

Variants of: B1
Assay: self-cleavage, relative activity (ratio to wild type); higher = more cleavage; in vitro, sequencing; the parent is a self-cleaving ribozyme
G29A A41G showed a self-cleavage of 0.32.
Variant G29A A41C has a self-cleavage of 0.05.
In the case of G29A A41U, the self-cleavage is reported as 0.74.
Work on U28C U38G yielded a self-cleavage of 0.01.
With U28C U38A the self-cleavage was 0.1.
Variant G27C U43A has a self-cleavage of 0.09.
Work on G27C U43C yielded a self-cleavage of 0.07.
With U28G C45G the self-cleavage was 0.27.
With U28G C45A the self-cleavage was 0.44.
With U28G C45U the self-cleavage was 0.92.
In the case of U28C G40U, the self-cleavage is reported as 0.17.
With U28C G40A the self-cleavage was 0.09.
U28C G40C showed a self-cleavage of 0.2.
In the case of G27U C37U, the self-cleavage is reported as 0.07.
G27U C37A showed a self-cleavage of 0.03.
G27U C37G gave a self-cleavage of 0.03.
U28G gave a self-cleavage of 0.64.
For U28C, the self-cleavage was 0.73.
For U28A, the self-cleavage was 0.71.
U28A G40U showed a self-cleavage of 0.12.
Work on U28A G40A yielded a self-cleavage of 0.1.
U28A G40C showed a self-cleavage of 0.09.
For G27A U43C, the self-cleavage was 0.37.
With G27A U43A the self-cleavage was 0.08.
Work on G27A U43G yielded a self-cleavage of 0.05.
Variant U28G G36A has a self-cleavage of 0.12.
U28G G36U gave a self-cleavage of 0.12.
With U28G G36C the self-cleavage was 0.05.
In the case of U28G C42U, the self-cleavage is reported as 0.31.
U28G C42G showed a self-cleavage of 0.03.
With U28G C42A the self-cleavage was 0.18.
G27C C42G showed a self-cleavage of 0.09.
G27C C42A showed a self-cleavage of 0.07.
Work on G27C C42U yielded a self-cleavage of 0.11.
In the case of G27C C46A, the self-cleavage is reported as 0.71.
G27C C46G showed a self-cleavage of 0.59.
Variant G27C C46U has a self-cleavage of 1.09.
For G27C G44A, the self-cleavage was 0.47.
With G27C G44U the self-cleavage was 0.38.
G27C G44C gave a self-cleavage of 0.14.
Work on U28G A41U yielded a self-cleavage of 0.52.
U28G A41G showed a self-cleavage of 0.27.
With U28G A41C the self-cleavage was 0.04.
Variant U28G G44U has a self-cleavage of 0.23.
U28G G44A gave a self-cleavage of 0.28.
U28G G44C showed a self-cleavage of 0.54.
U28G G35U gave a self-cleavage of 0.09.
For U28G G35A, the self-cleavage was 0.14.
With U28G G35C the self-cleavage was 0.07.
U28A G29U showed a self-cleavage of 0.41.
In the case of U28A G29A, the self-cleavage is reported as 0.6.
For U28A G29C, the self-cleavage was 0.16.
In the case of U28A C31A, the self-cleavage is reported as 0.83.
U28A C31G gave a self-cleavage of 0.13.
Variant U28A C31U has a self-cleavage of 0.54.
With U28C G30C the self-cleavage was 0.64.
Work on U28C G30A yielded a self-cleavage of 0.96.
U28C G30U showed a self-cleavage of 0.7.
Variant U28G G30U has a self-cleavage of 0.77.
With U28G G30C the self-cleavage was 0.77.
For U28G G30A, the self-cleavage was 0.9.
Variant U28C A39C has a self-cleavage of 0.1.
With U28C A39G the self-cleavage was 0.09.
U28C A39U gave a self-cleavage of 1.
Variant U28A A41C has a self-cleavage of 0.03.
With U28A A41U the self-cleavage was 0.42.
Work on U28A A41G yielded a self-cleavage of 0.3.
G27A U38C showed a self-cleavage of 0.26.
With G27A U38A the self-cleavage was 0.28.
G27A U38G showed a self-cleavage of 0.02.
For U28A C46G, the self-cleavage was 0.87.
U28A C46U gave a self-cleavage of 0.66.
With U28A C46A the self-cleavage was 1.23.
Variant G27U A39C has a self-cleavage of 0.22.
G27U A39G showed a self-cleavage of 0.22.
In the case of G27U A39U, the self-cleavage is reported as 0.56.
G27U A41C gave a self-cleavage of 0.06.
Variant G27U A41U has a self-cleavage of 0.49.
G27U A41G showed a self-cleavage of 0.27.
Variant G27A U28G has a self-cleavage of 0.4.
G27A U28C showed a self-cleavage of 0.87.
Variant G27A U28A has a self-cleavage of 0.77.
For U28G A39C, the self-cleavage was 0.05.
In the case of U28G A39G, the self-cleavage is reported as 0.07.
U28G A39U showed a self-cleavage of 0.56.
Variant U28G U43A has a self-cleavage of 0.06.
In the case of U28G U43C, the self-cleavage is reported as 0.08.
With U28G U43G the self-cleavage was 0.
U28A G36C gave a self-cleavage of 0.06.
With U28A G36A the self-cleavage was 0.14.
For U28A G36U, the self-cleavage was 0.08.
G27C U28G gave a self-cleavage of 0.51.
For G27C U28C, the self-cleavage was 1.12.
Variant G27C U28A has a self-cleavage of 0.54.
G29A C45U showed a self-cleavage of 1.67.
Variant G29A C45G has a self-cleavage of 0.2.
In the case of G29A C45A, the self-cleavage is reported as 1.03.
Variant U28A C37G has a self-cleavage of 0.04.
With U28A C37U the self-cleavage was 0.04.
Variant U28A C37A has a self-cleavage of 0.04.
Variant G27C C31A has a self-cleavage of 0.15.
G27C C31U gave a self-cleavage of 0.07.
For G27C C31G, the self-cleavage was 0.05.
For U28C G29A, the self-cleavage was 0.37.
Variant U28C G29U has a self-cleavage of 0.77.
U28C G29C gave a self-cleavage of 1.2.
G27C A39U showed a self-cleavage of 0.76.
For G27C A39C, the self-cleavage was 0.11.
G27C A39G showed a self-cleavage of 0.06.
U28C G33C gave a self-cleavage of 0.06.
For U28C G33A, the self-cleavage was 0.14.
U28C G33U showed a self-cleavage of 0.08.
With U28A U32C the self-cleavage was 0.18.
Work on U28A U32G yielded a self-cleavage of 0.3.
U28C G35U gave a self-cleavage of 0.09.
With U28C G35C the self-cleavage was 0.13.
U28C G35A showed a self-cleavage of 0.21.
G27U G33C gave a self-cleavage of 0.07.
For G27U G33U, the self-cleavage was 0.07.
G27U G33A showed a self-cleavage of 0.09.
Work on G27C yielded a self-cleavage of 0.72.
With G27U the self-cleavage was 0.83.
G27A U32A showed a self-cleavage of 0.06.
Variant G27A U32C has a self-cleavage of 0.15.
For G27A U32G, the self-cleavage was 0.21.
With G27C U38C the self-cleavage was 0.29.
Variant G27C U38A has a self-cleavage of 0.34.
Work on G27C U38G yielded a self-cleavage of 0.02.
Work on U28A C42G yielded a self-cleavage of 0.02.
Work on U28A C42A yielded a self-cleavage of 0.12.
For U28A C42U, the self-cleavage was 0.22.
For U28A U34A, the self-cleavage was 0.44.
In the case of U28A U34G, the self-cleavage is reported as 0.11.
U28A U34C gave a self-cleavage of 0.07.
For G27U G36A, the self-cleavage was 0.4.
G27U G36U gave a self-cleavage of 0.04.
G27U G36C showed a self-cleavage of 0.1.
Work on G27A U34A yielded a self-cleavage of 0.19.
Work on G27A U34G yielded a self-cleavage of 0.32.
Work on G27A U34C yielded a self-cleavage of 0.13.
For U28A G35C, the self-cleavage was 0.08.
U28A G35A gave a self-cleavage of 0.15.
U28A G35U gave a self-cleavage of 0.18.
Variant G29A C37G has a self-cleavage of 0.02.
G29A C37U gave a self-cleavage of 0.05.
With G29A C37A the self-cleavage was 0.1.
For U28C U43C, the self-cleavage was 0.12.
Variant U28C U43A has a self-cleavage of 0.08.
U28G G29C showed a self-cleavage of 0.53.
With U28G G29U the self-cleavage was 0.61.
With U28G G29A the self-cleavage was 0.34.
With U28C G36A the self-cleavage was 0.1.
Work on U28C G36C yielded a self-cleavage of 0.28.
Variant U28C G36U has a self-cleavage of 0.11.
U28G C46A gave a self-cleavage of 1.1.
With U28G C46U the self-cleavage was 0.36.
U28G C46G gave a self-cleavage of 0.99.
For G27C G30U, the self-cleavage was 1.72.
For G27C G30C, the self-cleavage was 0.84.
Work on G27C G30A yielded a self-cleavage of 1.2.
With U28G U38C the self-cleavage was 1.1.
Variant U28G U38G has a self-cleavage of 0.02.
Variant U28G U38A has a self-cleavage of 0.19.
Variant G27U U38C has a self-cleavage of 0.58.
With G27U U38G the self-cleavage was 0.03.
G27U U38A showed a self-cleavage of 0.39.
In the case of U28C C45G, the self-cleavage is reported as 0.44.
